From article PMC10397247
One block for each binder: values may come before it.

Experiments:
4H3817-bH = target: T1, 4H3817-bH; assay: two-hybrid library CCNG1;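 also: natural log of median RNA to DNA barcode read ratio; higher means stronger binding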
T1 chain: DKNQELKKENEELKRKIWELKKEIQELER

4H906-bH = target: T2, 4H906-bH; assay: two-hybrid library CCNG1;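 also: natural log of median RNA to DNA barcode read ratio; higher means stronger binding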
T2 chain: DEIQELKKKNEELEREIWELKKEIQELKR

4H3858-bH = target: T3, 4H3858-bH; assay: two-hybrid library CCNG1;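 also: natural log of median RNA to DNA barcode read ratio; higher means stronger binding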
T3 chain: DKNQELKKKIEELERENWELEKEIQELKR

4H570-bH = target: T4, 4H570-bH; assay: two-hybrid library CCNG1;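 also: natural log of median RNA to DNA barcode read ratio; higher means stronger binding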
T4 chain: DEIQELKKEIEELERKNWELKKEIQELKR

4H4073-bH = target: T5, 4H4073-bH; assay: two-hybrid library CCNG1;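 also: natural log of median RNA to DNA barcode read ratio; higher means stronger binding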
T5 chain: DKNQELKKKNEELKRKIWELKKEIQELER

4H850-bH = target: T6, 4H850-bH; assay: two-hybrid library CCNG1;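 also: natural log of median RNA to DNA barcode read ratio; higher means stronger binding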
T6 chain: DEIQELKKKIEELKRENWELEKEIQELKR

4H584-bH = target: T7, 4H584-bH; assay: two-hybrid library CCNG1
T7 chain: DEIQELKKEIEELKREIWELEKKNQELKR

4H3974-bH = target: T8, 4H3974-bH; assay: two-hybrid library CCNG1
T8 chain: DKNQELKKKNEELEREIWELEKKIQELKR

4H619-bH = target: T9, 4H619-bH; assay: two-hybrid library CCNG1
T9 chain: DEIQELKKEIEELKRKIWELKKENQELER

4H3613-bH = target: T10, 4H3613-bH; assay: two-hybrid library CCNG1
T10 chain: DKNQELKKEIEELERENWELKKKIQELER

4H591-bH = target: T11, 4H591-bH; assay: two-hybrid library CCNG1
T11 chain: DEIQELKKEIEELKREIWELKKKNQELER

4H626-bH = target: T12, 4H626-bH; assay: two-hybrid library CCNG1
T12 chain: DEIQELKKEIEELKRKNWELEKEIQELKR

4H3926-bH = target: T13, 4H3926-bH; assay: two-hybrid library CCNG1
T13 chain: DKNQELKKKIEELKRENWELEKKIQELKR

4H3628-bH = target: T14, 4H3628-bH; assay: two-hybrid library CCNG1
T14 chain: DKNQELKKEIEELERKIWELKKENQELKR

APC542-AA = target: T15, APC542-AA; assay: two-hybrid library CCmax; settings: mean of both orientations
T15 chain: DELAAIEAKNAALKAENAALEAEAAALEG

APC9141-AA = target: T16, APC9141-AA; assay: two-hybrid library CCmax; settings: mean of both orientations
T16 chain: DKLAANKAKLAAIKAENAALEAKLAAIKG

APC3323-AA = target: T17, APC3323-AA; assay: two-hybrid library CCmax; settings: mean of both orientations
T17 chain: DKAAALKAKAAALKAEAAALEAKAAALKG

APC9291-AA = target: T18, APC9291-AA; assay: two-hybrid library CCmax; settings: mean of both orientations
T18 chain: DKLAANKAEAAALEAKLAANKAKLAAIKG

APC7524-AA = target: T19, APC7524-AA; assay: two-hybrid library CCmax; settings: mean of both orientations
T19 chain: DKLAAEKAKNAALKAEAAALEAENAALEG

APC3265-AA = target: T20, APC3265-AA; assay: two-hybrid library CCmax; settings: mean of both orientations
T20 chain: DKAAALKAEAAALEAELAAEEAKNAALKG

APC6088-AA = target: T21, APC6088-AA; assay: two-hybrid library CCmax; settings: mean of both orientations
T21 chain: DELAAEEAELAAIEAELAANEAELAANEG

APC9806-AA = target: T22, APC9806-AA; assay: two-hybrid library CCmax; settings: mean of both orientations
T22 chain: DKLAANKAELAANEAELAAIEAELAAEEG

APC3354-AA = target: T23, APC3354-AA; assay: two-hybrid library CCmax; settings: mean of both orientations
T23 chain: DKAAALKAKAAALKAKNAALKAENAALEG

APC5009-AA = target: T24, APC5009-AA; assay: two-hybrid library CCmax; settings: mean of both orientations
T24 chain: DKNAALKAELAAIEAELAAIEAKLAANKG

APC2981-AA = target: T25, APC2981-AA; assay: two-hybrid library CCmax
T25 chain: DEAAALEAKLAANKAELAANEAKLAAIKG

APC4336-AA = target: T26, APC4336-AA; assay: two-hybrid library CCmax; settings: mean of both orientations
T26 chain: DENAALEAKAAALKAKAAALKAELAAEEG

APC9182-AA = target: T27, APC9182-AA; assay: two-hybrid library CCmax; settings: mean of both orientations
T27 chain: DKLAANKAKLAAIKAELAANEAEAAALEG

APC5531-AA = target: T28, APC5531-AA; assay: two-hybrid library CCmax; settings: mean of both orientations
T28 chain: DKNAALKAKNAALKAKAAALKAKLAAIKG

APC3881-AA = target: T29, APC3881-AA; assay: two-hybrid library CCmax; settings: mean of both orientations
T29 chain: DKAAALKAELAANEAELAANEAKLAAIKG

APC4100-AA = target: T30, APC4100-AA; assay: two-hybrid library CCmax; settings: mean of both orientations
T30 chain: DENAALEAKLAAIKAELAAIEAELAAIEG

APC8516-AA = target: T31, APC8516-AA; assay: two-hybrid library CCmax; settings: mean of both orientations
T31 chain: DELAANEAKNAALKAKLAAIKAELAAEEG

APC8401-AA = target: T32, APC8401-AA; assay: two-hybrid library CCmax; settings: mean of both orientations
T32 chain: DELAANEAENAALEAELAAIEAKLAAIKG

interaction score (4H3817-bH): 0.775
interaction score (4H906-bH): -0.699
interaction score (4H3858-bH): -0.973
interaction score (4H570-bH): -0.71
interaction score (4H4073-bH): -1.13
interaction score (4H850-bH): -0.885
interaction score (4H584-bH): -0.723
interaction score (4H3974-bH): 0.787
interaction score (4H619-bH): 0.591
Binder: DKNQELKKENEELKRKIWELKKEIQELER [4H3817-bH]

interaction score (4H3613-bH): 0.898
interaction score (4H3817-bH): -0.0066
interaction score (4H906-bH): -1.07
interaction score (4H3858-bH): 0.0148
interaction score (4H570-bH): -0.821
interaction score (4H850-bH): 1.37
interaction score (4H3974-bH): -1.15
interaction score (4H591-bH): -2.09
interaction score (4H626-bH): -1.94
interaction score (4H3926-bH): 1.59
interaction score (4H3628-bH): -0.609
Binder: DKNQELKKEIEELERENWELKKKIQELER [4H3613-bH]

interaction score (APC542-AA): -1.62
interaction score (APC9141-AA): -1.53
interaction score (APC3323-AA): -1.68
interaction score (APC9291-AA): -1.74
interaction score (APC7524-AA): -1.71
interaction score (APC3265-AA): -1.62
interaction score (APC6088-AA): -1.49
interaction score (APC9806-AA): -1.51
interaction score (APC3354-AA): -2.3
interaction score (APC5009-AA): -1.75
interaction score (APC2981-AA): -1.58
interaction score (APC4336-AA): -2.05
interaction score (APC9182-AA): -1.76
interaction score (APC5531-AA): -1.79
interaction score (APC3881-AA): -1.67
interaction score (APC4100-AA): -1.62
interaction score (APC8516-AA): -1.73
interaction score (APC8401-AA): -1.71
Binder: DEAAALEAKLAANKAELAANEAKLAAIKG [APC2981-AA]
